Data on 174 variants can be found in IntAct's records for PubMed 29039417.

B1: Isoform 2 of Bardet-Biedl syndrome 7 protein (Homo sapiens), Q8IWZ6-2 (parent)
chain: MDLILNRMDYLQVGVTSQKTMKLIPASRHRATQKVVIGDHDGVVMCFGMKKGEAAAVFKTLPGPKIARLELGGVINTPQEKIFIAAASEIRGFTKRGKQFLSFETNLTESIKAMHISGSDLFLSASYIYNHYCDCKDQHYYLSGDKINDVICLPVERLSRITPVLACQDRVLRVLQGSDVMYAVEVPGPPTVLALHNGNGGDSGEDLLFGTSDGKLALIQITTSKPVRKWEIQNEKKRGGILCIDSFDIVGDGVKDLLVGRDDGMVEVYSFDNANEPVLRFDQMLSESVTSIQGGCVGKDSYDEIVVSTYSGWVTGLTTEPIHKESGPGEELKINQEMQNKISSLRNELEHLQYKVLQERENYQQSSQSSKAKSAVPSFGINDKFTLNKDDASYSLILEVQTAIDNVLIQSDVPIDLLDVDKNSAVVSFSSCDSESNDNFLLATYRCQADTTRLELKIRSIEGQYGTLQAYVTPRIQPKTCQVRQYHIKPLSLHQRTHFIDHDRPMNTLTLTGQFSFAEVHSWVVFCLPEVPEKPPAGECVTFYFQNTFLDTQLESTYRKGEGVFKSDNISTISILKDVLSKEATKRKINLNISYEINEVSVKHTLKLIHPKLEYQLLLAKKVQLIDALKELQIHEGNTNFLIPEYHCILEEADHLQEEYKKQPAHLERLYG
partner: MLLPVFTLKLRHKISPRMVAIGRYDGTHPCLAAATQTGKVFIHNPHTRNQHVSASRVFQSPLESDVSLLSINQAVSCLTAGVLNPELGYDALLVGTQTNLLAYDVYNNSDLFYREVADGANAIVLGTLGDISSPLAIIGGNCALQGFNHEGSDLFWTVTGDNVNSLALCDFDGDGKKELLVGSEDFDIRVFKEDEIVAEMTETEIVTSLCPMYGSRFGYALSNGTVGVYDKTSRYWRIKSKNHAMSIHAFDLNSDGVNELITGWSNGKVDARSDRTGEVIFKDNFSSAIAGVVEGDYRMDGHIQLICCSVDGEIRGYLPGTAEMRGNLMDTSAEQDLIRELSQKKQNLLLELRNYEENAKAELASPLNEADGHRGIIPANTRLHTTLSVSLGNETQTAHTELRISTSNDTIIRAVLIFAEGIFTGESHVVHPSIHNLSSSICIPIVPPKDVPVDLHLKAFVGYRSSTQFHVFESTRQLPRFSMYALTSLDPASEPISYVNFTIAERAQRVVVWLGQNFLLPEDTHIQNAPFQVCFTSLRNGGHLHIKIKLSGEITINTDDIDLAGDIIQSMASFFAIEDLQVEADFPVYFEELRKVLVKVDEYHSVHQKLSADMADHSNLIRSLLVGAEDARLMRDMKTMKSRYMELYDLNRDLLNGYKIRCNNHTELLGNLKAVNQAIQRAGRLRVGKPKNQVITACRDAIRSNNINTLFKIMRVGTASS

The variants in one assay derive from B1. The settings on record: with bbs2_human BBS2, Q9BXC9.
On to P478K, for which the “effect of a mutation on the interaction” value is listed as “with no effect”.
Still for that read-out and setting: with P478E the entry was “with no effect”; with P478A, “with no effect”; with N439E, “with no effect”.
The same measure, in the same setting: with N439A the entry was “disrupting interaction strength”; with N439K, “with no effect”.
Consider S431K, for which the “effect of a mutation on the interaction” value is “with no effect”.
Same read-out and setting: with S431E the entry was “with no effect”.
Still for that read-out and setting: then S431A, with “with no effect”.
Consider T452K, for which the “effect of a mutation on the interaction” value is listed as “with no effect”.
Still for that read-out and setting: then T452E, with “with no effect”; and T452A, with “with no effect”; and K457A, with “with no effect”.
Take K457E: the “effect of a mutation on the interaction” value is given as “with no effect”.
Same read-out and setting: then T444A, with “with no effect”; and T444E, with “with no effect”.
Same read-out and setting: then T444K, with “with no effect”; and C481A, with “with no effect”.
Take C481E: the “effect of a mutation on the interaction” value is “with no effect”.
Take C481K: the “effect of a mutation on the interaction” value is “with no effect”.
As for C481R, the “effect of a mutation on the interaction” value is “disrupting interaction strength”.
Still for that read-out and setting: with V427K the entry was “with no effect”.
On the same count and under the same terms, then Q477E, with “with no effect”; and Q477K, with “with no effect”.
Still for that read-out and setting: then Q477A, with “disrupting interaction strength”; and P474A, with “with no effect”; and P474E, with “disrupting interaction strength”.
Regarding P474K, the “effect of a mutation on the interaction” value is given as “disrupting interaction strength”.
Still for that read-out and setting: then L454A, with “with no effect”.
On the same count and under the same terms, then L454K, with “with no effect”.
The same measure, in the same setting: then L454E, with “with no effect”; and L468E, with “with no effect”; and L468P, with “disrupting interaction strength”.
For L468K, the “effect of a mutation on the interaction” value is recorded as “with no effect”.
On the same count and under the same terms, then L468A, with “with no effect”.
Same read-out and setting: with D438E the entry was “with no effect”.
The same measure, in the same setting: then D438A, with “with no effect”.
D438K: the “effect of a mutation on the interaction” value is given as “with no effect”.
The same measure, in the same setting: then R446E, with “with no effect”; and R446A, with “with no effect”; and R446K, with “with no effect”.
On the same count and under the same terms, then T451E, with “with no effect”; and T451A, with “with no effect”.
With T451K, the “effect of a mutation on the interaction” value was “with no effect”.
The same measure, in the same setting: with A443K the entry was “with no effect”; with A443E, “disrupting interaction strength”.
The same measure, in the same setting: with T467K the entry was “with no effect”.
On the same count and under the same terms, then T467A, with “with no effect”.
Take T467E: the “effect of a mutation on the interaction” value is recorded as “with no effect”.
Still for that read-out and setting: then F440K, with “with no effect”; and F440E, with “with no effect”.
Same read-out and setting: with F440A the entry was “with no effect”; with Q482A, “with no effect”.
Same read-out and setting: with Q482K the entry was “with no effect”; with Q482E, “with no effect”; with E435K, “with no effect”.
In the case of E435A, the “effect of a mutation on the interaction” value is given as “with no effect”.
Regarding V483K, the “effect of a mutation on the interaction” value is on record as “with no effect”.
Still for that read-out and setting: with V483A the entry was “with no effect”.
Still for that read-out and setting: then V483I, with “disrupting interaction strength”; and V483E, with “with no effect”; and V472A, with “with no effect”.
The same measure, in the same setting: with V472K the entry was “with no effect”; with V472M, “disrupting interaction strength”.
In the case of V472E, the “effect of a mutation on the interaction” value is on record as “disrupting interaction strength”.
Still for that read-out and setting: with R459E the entry was “with no effect”.
The same measure, in the same setting: then R459A, with “with no effect”; and R459K, with “with no effect”.
For the variant R484E, the “effect of a mutation on the interaction” value was “with no effect”.
On to R484A, for which the “effect of a mutation on the interaction” value is “with no effect”.
The same measure, in the same setting: then R484K, with “with no effect”; and A470K, with “with no effect”.
On the same count and under the same terms, then A470E, with “with no effect”; and Y445E, with “with no effect”; and Y445K, with “with no effect”.
In the case of Y445A, the “effect of a mutation on the interaction” value is “with no effect”.
Still for that read-out and setting: then Q464A, with “with no effect”; and Q464E, with “with no effect”.
The same measure, in the same setting: then Q464K, with “with no effect”; and N437K, with “with no effect”; and N437A, with “with no effect”.
In the case of N437E, the “effect of a mutation on the interaction” value is “with no effect”.
Still for that read-out and setting: then S428A, with “with no effect”; and S428K, with “with no effect”; and S428E, with “with no effect”.
For F429E, the “effect of a mutation on the interaction” value is “with no effect”.
On the same count and under the same terms, with F429A the entry was “with no effect”; with F429K, “with no effect”.
On the same count and under the same terms, with S434A the entry was “with no effect”.
In the case of S434K, the “effect of a mutation on the interaction” value is “with no effect”.
With S434E, the “effect of a mutation on the interaction” value was “with no effect”.
With D450E, the “effect of a mutation on the interaction” value is given as “with no effect”.
Still for that read-out and setting: then D450K, with “with no effect”; and D450A, with “with no effect”; and S430A, with “with no effect”.
Still for that read-out and setting: then S430K, with “with no effect”; and S430E, with “with no effect”.
On the same count and under the same terms, with L456A the entry was “with no effect”; with L456K, “with no effect”.
Turning to L456E, the “effect of a mutation on the interaction” value was “with no effect”.
On the same count and under the same terms, then Q448K, with “disrupting interaction strength”; and Q448E, with “with no effect”.
As to Q448A, the “effect of a mutation on the interaction” value is listed as “with no effect”.
On the same count and under the same terms, with I458K the entry was “disrupting interaction strength”.
Same read-out and setting: with I458A the entry was “disrupting interaction strength”; with I458Q, “disrupting interaction strength”.
Same read-out and setting: then I458E, with “disrupting interaction strength”; and R453A, with “with no effect”; and R453K, with “with no effect”.
For R453E, the “effect of a mutation on the interaction” value is reported as “with no effect”.
As for Y471A, the “effect of a mutation on the interaction” value is listed as “with no effect”.
With Y471E, the “effect of a mutation on the interaction” value was “with no effect”.
Still for that read-out and setting: then Y471K, with “with no effect”; and E462A, with “with no effect”; and E462K, with “with no effect”.
On the same count and under the same terms, then I461K, with “with no effect”; and I461E, with “with no effect”.
Same read-out and setting: with I461A the entry was “with no effect”.
Regarding L441E, the “effect of a mutation on the interaction” value is recorded as “with no effect”.
The same measure, in the same setting: then L441A, with “with no effect”.
Turning to L441K, the “effect of a mutation on the interaction” value is “with no effect”.
Still for that read-out and setting: with C432E the entry was “with no effect”.
On to C432A, for which the “effect of a mutation on the interaction” value is given as “with no effect”.
On the same count and under the same terms, with C432K the entry was “with no effect”; with A449T, “disrupting interaction strength”.
Still for that read-out and setting: then A449E, with “with no effect”; and A449K, with “with no effect”; and R475K, with “with no effect”.
Same read-out and setting: then R475A, with “disrupting interaction strength”.
As to R475E, the “effect of a mutation on the interaction” value is given as “with no effect”.
Still for that read-out and setting: with K479A the entry was “with no effect”; with K479E, “with no effect”; with Q469K, “with no effect”.
Turning to Q469E, the “effect of a mutation on the interaction” value is given as “with no effect”.
On the same count and under the same terms, then Q469A, with “disrupting interaction strength”; and T480E, with “with no effect”; and T480A, with “with no effect”.
On the same count and under the same terms, then T480K, with “with no effect”; and L442P, with “disrupting interaction strength”; and L442A, with “with no effect”.
L442K: the “effect of a mutation on the interaction” value was “with no effect”.
The same measure, in the same setting: with L442E the entry was “with no effect”; with S460E, “with no effect”.
On the same count and under the same terms, with S460K the entry was “with no effect”; with S460A, “with no effect”.
Still for that read-out and setting: with D433E the entry was “with no effect”.
For D433K, the “effect of a mutation on the interaction” value is listed as “with no effect”.
Same read-out and setting: then D433A, with “with no effect”; and Y465E, with “with no effect”.
On the same count and under the same terms, then Y465A, with “with no effect”; and Y465K, with “with no effect”; and G463E, with “with no effect”.
On the same count and under the same terms, with G463K the entry was “with no effect”; with G463A, “with no effect”; with T473K, “with no effect”.
Consider T473A, for which the “effect of a mutation on the interaction” value was “with no effect”.
The same measure, in the same setting: then T473E, with “with no effect”.
The same measure, in the same setting: then E455A, with “with no effect”; and E455K, with “disrupting interaction strength”; and S436K, with “with no effect”.
On the same count and under the same terms, with S436A the entry was “with no effect”; with S436E, “with no effect”.
Consider I476K, for which the “effect of a mutation on the interaction” value is “with no effect”.
On the same count and under the same terms, with I476E the entry was “with no effect”.
In the case of I476A, the “effect of a mutation on the interaction” value is listed as “disrupting interaction strength”.
The same measure, in the same setting: with G466E the entry was “disrupting interaction strength”; with G466K, “with no effect”; with G466D, “disrupting interaction strength”.
Same read-out and setting: then G466A, with “with no effect”; and G466Y, with “disrupting interaction strength”.
Still for that read-out and setting: then C447Y, with “disrupting interaction strength”; and C447K, with “with no effect”.
As to C447E, the “effect of a mutation on the interaction” value was “with no effect”.
On the same count and under the same terms, then C447A, with “with no effect”.

In the next assay the parent is B1. The following applies: with bbs2_human BBS2, Q9BXC9. This is another data set of the same source.
With I458E, the “effect of a mutation on the interaction” value is listed as “with no effect”.
